The values that follow are results of earlier work, collected in PMC8466385.

The data set deals with Tyr411 (UniProt position 435, ALLVRYTKKVP). Put plainly: kinetics. To be noted: not stated for the pKa values (Table 1 footnote c gives 22.0 °C for kinetic parameters from the same reference).

“Human serum albumin (HSA) (Homo sapiens)”: the pKa is, setting by setting: (HSA:NphODe (p-nitrophenyl decanoate) substrate complex) 7.0; (HSA:NphOHe (p-nitrophenyl hexanoate) substrate complex) 7.6; (substrate-free HSA) 8.9.
